Assay results taken from the supplement of paper PMC6757056.
± gives the standard deviation of the averaged measurements.

B1: library; a variant is named by its letters at N, in order (parent)
chain: GCUGUCACCGAGAAACUGUGAAGUAUAUCUUAAACCUGGGCACUUAAAAGAUAUAUGGAGUUAGUAGUGCAACCUGCUCGGUCUGAUGAGUCCNNNNNNGGACGAAACAGC

Assays:
cyclic di-GMP [1] = variants of: B1; test: normalized RNA/DNA level without ligand (relative to sTRSVctl = 100) (log10 (% of sTRSVctl)); HEK293T; ligand: cyclic di-GMP (c-di-GMP-II aptamer); higher = less ribozyme self-cleavage, higher mRNA level; conditions: reporter: mCherry (pCS4076), ligand present: no
In short: (§1)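 HEK293T cells were transfected with library plasmids carrying ribozyme switches linked to an mCherry reporter, or an eGFP reporter in some ligand experiments, at 4 µg per well of a 6-well plate, with any ligand added 1 h beforehand. After 72 h, total RNA was extracted with EDTA, reverse-transcribed, amplified, barcoded and sequenced. RNA level was defined as RNA reads over DNA reads, normalized to a spiked-in non-cleaving sequence or to the top-ranked sequences. That value was multiplied by 100 and converted to log10, the top set was 25 sequences, and only sequences with ≥100 DNA reads were retained.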

cyclic di-GMP [2] = variants of: B1; test: normalized RNA/DNA level with ligand (relative to sTRSVctl = 100) (log10 (% of sTRSVctl)); HEK293T; ligand: cyclic di-GMP (c-di-GMP-II aptamer); ligand concentration (+) RNA-Seq: 1 mM; higher = less ribozyme self-cleavage, higher mRNA level; conditions: reporter: mCherry (pCS4076), ligand present: yes
In short: as §1

Variant	normalized RNA/DNA level without ligand (log10) (cyclic di-GMP [1])	normalized RNA/DNA level with ligand (log10) (cyclic di-GMP [2])
AUCUUC	1.81 ± 0.038	1.92 ± 0.086
AACCGC	1.718 ± 0.0043	1.86 ± 0.1
UAAUUG	1.71 ± 0.04	1.83 ± 0.13
UAAUUC	1.73 ± 0.021	1.84 ± 0.099
UGGGAG	1.673 ± 0.012	1.79 ± 0.14
UGACCU	1.72 ± 0.016	1.87 ± 0.087
GCGAGG	1.613 ± 0.016	1.75 ± 0.16
GUGCAA	1.64 ± 0.046	1.77 ± 0.084
GGUGCA	1.78 ± 0.12	1.91 ± 0.13
UAUAGG	1.68 ± 0.023	1.85 ± 0.11
AGUCCC	1.77 ± 0.042	1.87 ± 0.069
UAAGAA	1.597 ± 0.008	1.74 ± 0.13
CUUUGA	1.66 ± 0.019	1.79 ± 0.11
AAGCCG	1.732 ± 0.0043	1.82 ± 0.069
UUAGAC	1.702 ± 0.0078	1.83 ± 0.1
UAAAAC	1.697 ± 0.003	1.8 ± 0.1
CGAGUG	1.7 ± 0.049	1.83 ± 0.15
GUGUUU	1.72 ± 0.023	1.9 ± 0.092
UCCUGC	1.79 ± 0.062	1.91 ± 0.053
AUGCAA	1.52 ± 0.029	1.66 ± 0.12

Variant	normalized RNA/DNA level without ligand (log10) (cyclic di-GMP [1])	normalized RNA/DNA level with ligand (log10) (cyclic di-GMP [2])
AAGUGG	1.68 ± 0.033	1.78 ± 0.12
AAUUUA	1.61 ± 0.031	1.81 ± 0.15
AAUUUG	1.62 ± 0.071	1.75 ± 0.12
AUUUGG	1.56 ± 0.032	1.77 ± 0.088
AUCCAU	1.65 ± 0.048	1.81 ± 0.088
CUCAGC	1.76 ± 0.076	1.89 ± 0.13
AGCGCG	1.708 ± 0.0043	1.83 ± 0.12
AUCCCA	1.76 ± 0.024	1.86 ± 0.091
UAACAG	1.68 ± 0.02	1.86 ± 0.098
CAGCCG	1.847 ± 0.0028	1.9 ± 0.074
GACCUU	1.69 ± 0.0029	1.86 ± 0.13
GACCUC	1.72 ± 0.047	1.86 ± 0.12
UGCCGG	1.75 ± 0.04	1.86 ± 0.039
ACAACC	1.67 ± 0.02	1.82 ± 0.1
CCAUUC	1.59 ± 0.043	1.77 ± 0.12
CCAUUU	1.569 ± 0.013	1.7 ± 0.12
AUCUAU	1.71 ± 0.073	1.79 ± 0.067
AUCUAA	1.52 ± 0.019	1.7 ± 0.091
ACCGUA	1.51 ± 0.034	1.68 ± 0.13
GUAGCC	1.69 ± 0.071	1.8 ± 0.11

Variant	normalized RNA/DNA level without ligand (log10) (cyclic di-GMP [1])	normalized RNA/DNA level with ligand (log10) (cyclic di-GMP [2])
AAUUAC	1.72 ± 0.068	1.83 ± 0.099
CCUAGU	1.72 ± 0.02	1.85 ± 0.11
CGCAUU	1.47 ± 0.073	1.61 ± 0.11
AUAGAU	1.58 ± 0.056	1.72 ± 0.12
CUCAUU	1.79 ± 0.079	1.9 ± 0.12
AAUUGC	1.696 ± 0.016	1.83 ± 0.091
AACCUA	1.51 ± 0.041	1.71 ± 0.13
GCCUGA	1.6 ± 0.036	1.77 ± 0.069
ACAUCA	1.683 ± 0.013	1.79 ± 0.063
ACAUCC	1.68 ± 0.047	1.83 ± 0.14
UCGCCU	1.76 ± 0.029	1.92 ± 0.12
UCCCGC	1.801 ± 0.018	1.91 ± 0.1
UGGGGC	1.767 ± 0.012	1.91 ± 0.1
UCUACC	1.798 ± 0.0078	1.88 ± 0.12
UCUUCG	1.79 ± 0.055	1.89 ± 0.12
ACGCAA	1.47 ± 0.075	1.64 ± 0.11
GGCGCC	1.79 ± 0.041	1.84 ± 0.083
GGCGCG	1.72 ± 0.034	1.83 ± 0.19
